Experiment [1] deals with T1, recombinant human NRP-1 protein (human, UniProt O14786 22-856).
T1 sequence (looked up): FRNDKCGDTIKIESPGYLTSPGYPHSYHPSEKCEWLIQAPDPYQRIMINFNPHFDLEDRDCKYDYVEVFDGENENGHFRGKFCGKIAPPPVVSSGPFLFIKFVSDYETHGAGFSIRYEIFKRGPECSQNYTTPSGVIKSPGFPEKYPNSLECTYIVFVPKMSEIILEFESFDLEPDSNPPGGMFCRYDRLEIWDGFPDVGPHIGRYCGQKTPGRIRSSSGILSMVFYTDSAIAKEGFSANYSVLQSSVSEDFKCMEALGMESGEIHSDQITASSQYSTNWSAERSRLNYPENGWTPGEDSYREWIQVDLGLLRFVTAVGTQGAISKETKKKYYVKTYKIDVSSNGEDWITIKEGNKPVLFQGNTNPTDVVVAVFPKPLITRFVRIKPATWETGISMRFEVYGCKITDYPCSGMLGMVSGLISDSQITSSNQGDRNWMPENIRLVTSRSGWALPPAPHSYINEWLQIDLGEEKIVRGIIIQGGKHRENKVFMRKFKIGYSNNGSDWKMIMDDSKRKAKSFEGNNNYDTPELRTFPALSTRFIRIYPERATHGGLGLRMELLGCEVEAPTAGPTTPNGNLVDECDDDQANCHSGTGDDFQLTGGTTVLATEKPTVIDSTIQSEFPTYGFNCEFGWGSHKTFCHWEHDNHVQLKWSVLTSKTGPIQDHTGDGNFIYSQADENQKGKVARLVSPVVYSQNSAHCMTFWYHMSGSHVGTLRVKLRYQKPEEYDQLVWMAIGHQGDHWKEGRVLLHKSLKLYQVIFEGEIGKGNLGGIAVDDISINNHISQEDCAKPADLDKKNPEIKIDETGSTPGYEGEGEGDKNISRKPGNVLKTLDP
Kind of experiment: SPR.

In experiment [2] the target is T2, recombinant rat NRP-1 protein (rat, UniProt Q9QWJ9 22-855).
T2 sequence (looked up): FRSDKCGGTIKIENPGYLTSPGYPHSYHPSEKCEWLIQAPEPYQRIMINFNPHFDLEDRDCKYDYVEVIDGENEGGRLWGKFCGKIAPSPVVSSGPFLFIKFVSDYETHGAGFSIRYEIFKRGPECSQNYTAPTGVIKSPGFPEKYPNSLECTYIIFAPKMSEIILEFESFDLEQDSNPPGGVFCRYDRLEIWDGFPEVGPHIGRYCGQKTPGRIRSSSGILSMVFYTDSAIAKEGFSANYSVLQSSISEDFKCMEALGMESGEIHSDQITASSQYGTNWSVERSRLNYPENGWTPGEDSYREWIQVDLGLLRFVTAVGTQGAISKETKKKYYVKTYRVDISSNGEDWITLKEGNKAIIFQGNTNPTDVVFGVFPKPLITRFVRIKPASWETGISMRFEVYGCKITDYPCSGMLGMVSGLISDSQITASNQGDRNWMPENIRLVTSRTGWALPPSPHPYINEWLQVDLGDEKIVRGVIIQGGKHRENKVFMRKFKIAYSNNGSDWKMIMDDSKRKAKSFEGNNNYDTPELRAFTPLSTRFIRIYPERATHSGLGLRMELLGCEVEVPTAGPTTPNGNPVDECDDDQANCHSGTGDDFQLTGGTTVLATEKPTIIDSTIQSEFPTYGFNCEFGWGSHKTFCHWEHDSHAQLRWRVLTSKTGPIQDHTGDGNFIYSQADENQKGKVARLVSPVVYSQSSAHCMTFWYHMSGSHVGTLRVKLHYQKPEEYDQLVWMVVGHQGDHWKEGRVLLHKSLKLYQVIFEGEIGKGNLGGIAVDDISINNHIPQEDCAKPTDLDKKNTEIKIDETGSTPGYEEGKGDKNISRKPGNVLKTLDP
In words: SPR.

As to KDKPPR [KDKPPR peptide], the Kd in experiment [1] was 0.5 µM; in experiment [2], 8.7 µM.

The values above are taken from PMC7673487 (International Journal of Nanomedicine, 2020).
